The series in a line: label from the status in PepcDB records.

Take “RFEHGTVLAECLSPASPDTSCELLKRAAKFLAYVHGSDDPASGRIGGVRKEVRNEVRMWLRAVLPDEPSDGANELFEEWWALLEGIGLPPQPRRDAHAFNWLVTDNDRIIAVDLEAARWRPMGYELAQLT”: the protein production entry was “failed”.

In the case of “RGIAVYVEHHNGNIHPVTYELIGKAREMASKIKQPVYCVFVGKDIKDKCSNLISYGVDEVFVYDEDEFKDFRIEPYSKAIENFIDKIKPTIVLVGGTTLGRSLAPRLAARFRTGLTADCTILDIQSNTDLDQIRPAFGGNIMAHINTPNNRPQFATVRYKIFSAPEKIENTTGKITLCKVEKKELKSKIKVLS”, the protein production entry is “not failed”.

As for “RGIIRLIKDNKSLTMKNTEVMLHGSSLAFDASTLEIYAALLNGACLSIIDKEDLIDSQTLKEKLKNDHVNRAFFTTPLFNSLCEQDPSVFNELEQVIIGGDRASNKHLKIVMKNSKKTQFYNGYGPTENTVFTTMHNIQYSELEGDIPIGKA”, the protein production entry is recorded as “failed”.

As for “RHLVKVPCRIGASHTTGRLILPTLLANLSAVSDRFDFQVTLANSAEILTAMSQHKLDFGLVEKPLVTDQLNRLPFGHDELVHAGDFASPLWLLREPNSGVRHYTNAFLKARNIQPAQVMVIHSNQII”, the protein production entry is reported as “failed”.

For “RLEITPEAFLSDPTPAGVAARAAYELDPDIHVLPLADGTGEPLYLLHPSGGDVLCYMGLARELQGRPVYAVADPGLEDTPMPVDLDVVALTYGRVIMAHRAGLADTGKHGVREATAGYLIGGWSMGGTVAQRVAVQWRDQGIAVGALVLIDSNSPDRIRALTGMNDREVDAEFARRYLRSLQAFGAKAVDASAVTESDPASGVARALAGQGLALKDVERRISVFTRHLAGLAQLRVRPLVDVPTLLVIAEHQSPANSGVGMGVDDARDTEHLGWDDNLPTSTTEIMVPGHHYSVLSAPGLEIISEQIRELLA”, the protein production result was “failed”.

“RLKVEDALSYLDQVKLQFGSQPQVYNDFLDIMKEFKSQSIDTPGVISRVSQLFKGHPDLIMGFNTFLPPGYKIEVQTNDMVNVTTPGQVHQIPTHGI”: the protein production result is “failed”.

In the case of “RMSHHYATIEVSQQLRQLLGDQLVILLRETPDGQALERSQNDFRRVLEQGRANTVDSAEQAALDGVRDAYLQLQAHTPALLEAPMADNDGFSEAFNGLRLRLQDLQQLALAGISEAE”, the protein production result is “not failed”.

With “RNGLDLTTYEGQVEGVEIASDPNLKIVGMMTHFPNEGLDEIRRKVDRFKVETKWLMDSAGLKRKDITLHVANSYITLNLPEAHLDMVRPGGMLYGDYPATLPYERIVSFKTRIASLHFFPAGSTIGYGSTKVLERDSILANLPIGYSDGFARSLSNKADVLINGQRARVMGKASMNTTMVDVTDIIGVQANDEVVVFGRQGFEEITAEETEEKSGRILPEHYTIWGATNPRVYR”, the protein production result is “failed”.

Regarding “RNKPKGHLRIAIGGSTACDVLIPLLADFMTSWPDIRINLQVADKPADLISGNIDSAIRGGPMEDSTLIARKIGEATLVTCATPGYLQRYGTPASPDELHHGHRLISYLSPASGRAFPFRFTRH”, the protein production entry was “failed”.

As for “RNLEMIDMQIAGTEQLTAFVTFAAANIGAPEQWLTQYYGNLIERKELFGYWHKGKLLAAGECRLFDQYQTEYADLGMIVAQSNRGQGIAKKVLTFLTKHAATQGLTSICSTESNNVAAQKAIAHAGFTSAHRIVQFEFKHA”, the protein production result is listed as “failed”.

As to “RPQNTNSWQKDSIEGIDIMLAMDVSGSMQAMDFKPNRLEAAKDVAISFINNRPNDNIGMVTFAGESFTQCPLTTDHTVLLNMVQDLQMGVLDDGTAIGMGLATAVNRLKDSKAKSRVVILLTDGSNNMGDITPRMAADIARTFGIRVYTVGVGTRGEAPFPIQTEFGVRIQNVPVDIDEPTLDGIAEVSGGKYFRAVDNETLNEIYKEIDKLEKTRLMT”, the protein production result was “failed”.

Turning to “RQLVSGRLEVAADGPHLVMPMLARLRASYPGITVNLRLGNAQETLAALLSEHVDVAVLTEVEARPGLFLEELVNSRICALLPRQHPWCERNEGVPLEELDQQIMVLREPGSITRRTFDRACAEQGVQPRVLLELDSREAVT”, the protein production result is “failed”.

In the case of “RRCQVHLLDDRKLELLVQPKLLAKELLDLVASHFNLKEKEYFGIAFTDETGHLNWLQLDRRVLEHDFPKKSGPVVLYFCVR”, the protein production result is reported as “failed”.

Consider “RRGWVREVTAEVWTGPLAPVADLAGDTGVVLSREADETWLARYQRKGVSEVALRVLESGPSVWFATVPGAEGADGAGGGGGVAAIGRCVVDGRWASFAAVEVDPAQRRRGLATAVMAALARRALDEGASAAWLQVETDNAGARALYAGMGFAAHHSYHHYREPAAAGTDR”, for which the protein production entry was “failed”.

As for “RRRNQKRANAERERLRQIIDTIPQQVFVKDADGTYTLANKAAAAAHGVAVERLEGATHDEFALSDEQRDFKSDDAAVIENGESVHIEEDGLVEADGSSHTVQTDIVPIEIASGERRALVVATDIT”, the protein production result was “failed”.

On to “RSIRLPETIDLGALYLSMKDTEKGIKELNLEKDKKIFNHCFTGNCVIDWLVSNQSVRNRQEGLMIASSLLNEGYLQPAGDMSKSAVDGTAENPFLDNPDAFYYFPDSGFFCEEN”, for which the protein production result is “not failed”.

As for “RSSEWLEKWQFVNGRFREHLQTISSEDVSFEGNLYRILQHLVPENSSLFVGNSMPIRDVDTFFEKQDRPFRIYSNRGANGIDGVVSSAMGVCEGTKAPVTLVIGDLSFYHDLNGLLAAKKLGIPLTVILVNNDGGGIFSFLPQASEKTHFEDLFGTPTGLDFKHAAALYGGTYSCPASWDEFKTAYAPQADKPGLHLIEIKTDRQSRVQLHRDMLNEAVREVKKQWEL”, the protein production entry is “failed”.

For “RSTRQQAGREAEAFALQFLQQQGLRLIEQNWLCKRGELDLVMLDGDTVVFVEVRYRRHCGWGGAVESVDFRKQGKLVTAAQLFLQQVSCWADYPCRFDVIAIEGSPGSFD”, the protein production entry is on record as “failed”.

As to “RVGINQLVQHPALDAATTGFKEAFEEAGVDVTFDEQNANGEQGTALTISQQFASDNLDLVLAVATPAAQATAQNITDIPVLFTAVTDAVSAELVDSNEAPGGNVTGTSDIAPIEQQLELLQQLVPDAKSIGIVYASGEVNSQVQVDEVTKAAEPLGLSVNTQTVTTVNEIQQAVEALGDVDVIYVPTDNMVVSGISSLVQVAEQKQIPVIGAESGTVEGGALATLGIDYTELGRQTGEMALRILQDGEDPATMPVETATEFTYVINEDAAERQGVEIPQEILDKAERV”, the protein production result is “not failed”.

As to “SAAATGPSFWLGNETLKVPLALFALNRQRLCERLRKNPAVQAGSIVVLQGGEETQRYCTDTGVLFRQESFFHWAFGVTEPGCYGVIDVDTGKSTLFVPRLPASHATWMGKIHSKEHFKEKYAVDDVQYVDEIASVLTSQKPSVLLTLRGVNTDSGSVCREASFDGISKFEVNNTILHPEIVECRVFKTDMELEVLRYTNKISSEAHREVMKAVKVGMKEYELESLFEHYCYSRGGMRHSSYTCICGSGENSAVLHYGHAGAPNDRTIQNGDMCLFDMGGEYYCFASDITCSFPANGKFTADQKAVYEAVLRSSRAVMGAMKPGVWWPDMHRLADRIHLEELAHMGILSGSVDAMVQAHLGAVFMPHGLGHFLGIDVHDVGGYPEGVERIDEPGLRSLRTARHLQPGMVLTVEPGIYFIDHLLDEALADPARASFLNREVLQRFRGFGGVRIEEDVVVTDSGIELLTCVPRTVEEIEACMAGCDKAFTPFSGPK”, the protein production result is recorded as “failed”.

In the case of “SAAHQMDSITYSNNVTQQYIQPQSLQDISAVEDEIQNKIEAARQESKQLHAQINKAKHKIQDASLFQMANKVTSLTKNKINLKPNIVLKGHNNKISDFRWSRDSKRILSASQDGFMLIWDSASGLKQNAIPLDSQWVLSCAISPSSTLVASAGLNNNCTIYRVSKENRVAQNVASIFKGHTCYISDIEFTDNAHILTASGDMTCALWDIPKAKRVREYSDHLGDVLALAIPEEPNSENSSNTFASCGSDGYTYIWDSRSPSAVQSFYVNDSDINALRFFKDGMSIVAGSDNGAINMYDLRSDCSIATFSLFRGYEERTPTPTYMAANMEYNTAQSPQTLKSTSSSYLDNQGVVSLDFSASGRLMYSCYTDIGCVVWDVLKGEIVGKLEGHGGRVTGVRSSPDGLAVCTGSWDSTMKIWSPGYQ”, the protein production entry was “failed”.

As to “SAASQAGSNYPRCWNCGGPWGPGREDRFFCPQCRALQAPDPTRDYFSLMDCNRSFRVDTAKLQHRYQQLQRLVHPDFFSQRSQTEKDFSEKHSTLVNDAYKTLLAPLSRGLYLLKLHGIEIPERTDYEMDRQFLIEIMEINEKLAEAESEAAMKEIESIVKAKQKEFTDNVSSAFEQDDFEEAKEILTKMRYFSNIEEKIKLKKIPL”, the protein production entry is recorded as “not failed”.

On to “SAESSKLSATTVEAAPAMIKAKDVISPSEKEESDQTEITKVSVLKNLDEKEMIKEFADRLQRLEAKVDLLVTKADLLAIKADIQELLISAKGEKVPAMKTSAKASSESDDSYMDTSSEDESSSAEEPVNKPAASAAKPATKDSLFSAGFKPAAKDSLFSAGFKPDSLFSAGFEPAAKDSLFSAGFKPGSLFSAGFEPAAKDSLFSAGFKPDSLFSVGVKPAAKDSLFSVGVNGRSFSVTGFDASLPVDDIKSALSKYFSSFGEITRVFVPPSHGTGGSLGYAYIDLKEGAEKALELGRHDVGGWDLVVGKAEPIRSGSTWPFPGRCGNQGRCTFC”, for which the protein production result is “failed”.

“SAPFDVIGPQEPILAVVGEDAELPCRLSPNVSAKGMELRWFREKVSPAVFVSREGQEQEGEEMAEYRGRVSLVEDHIAEGSVAVRIQEVKASDDGEYRCFFRQDENYEEAIVHLKVAA”: the protein production result is on record as “failed”.

In the case of “SAQGLIEVERKFAPGPDTEERLQELGATLEHRVTFRDTYYDTSELSLMLSDHWLRQREGSGWELKCPGVTGVSGPHNEYVEVTSEAAIVAQLFELLGSGEQKPAGVAAVLGSLKLQEVASFITTRSSWKLALSGAHGQEPQLTIDLDSADFGYAVGEVEAMVHEKAEVPAALEKIITVSSMLGVPAQEEAPAKLMVYLQRFRPLDYQRLLEAASSGEATGDSAS”, the protein production entry is listed as “not failed”.

For “SARFALTVVRHGETRFNKEKIIQGQGVDEPLSETGFKQAAAAGIFLNNVKFTHAFSSDLMRTKQTMHGILERSKFCKDMTVKYDSRLRERKYGVVEGKALSELRAMAKAAREECPVFTPPGGETLDQVKMRGIDFFEFLCQLILKEADQKEQFSQGSPSNCLETSLAEIFPLGKNHSSKVNSDSGIPGLAASVLVVSHGAYMRSLFDYFLTDLKCSLPATLSRSELMSVTPNTGMSLFIINFEEGREVKPTVQCICMNLQDHLNGLTETR”, the protein production entry was “not failed”.

For the sequence “SASFVTSKRDFRARAHSNPLNDAEFLVPEDPLRFDWSPFIPDVGSHPIDYVDLGCGYGGLLCELSIAFPNKYMLGMEIRDRVASYCVTKLEELRRLNSKGYRNIGFIRTNCMKFLPFYFPPSSVEKFFICFPDPHFKKKKHRQRLVSLRFLSEAAYCLRPGGMIYIVTDVEELFAWMTNLFAQHPLFLTMDKELVKQQDVLLPYLLNHTDEAQRMKRRGQDTPYWNVFQRKTVFC”, the protein production entry is reported as “failed”.

Take “SATQIPSTISILATSDIHGNVLNYDYATGKAPTNTQGLAKVSSYVNSVRASKPNVMLIDDGDTIQGTPLSYYYDKIDTTSEYPLMKIMGAMKYDTWTLGNHEFNYGLPTLNRVISDARKENINVLSANTYNSDNTNFVNPYYIKTFNINGKTVNVGILGLTTKCIPDWEDPSHYAGLHFNDLVDEAKLWVPRMKAAGANVVIVAAHSGEEGAADTIPENQIKAIATNVSGIDAIVAGHAHVTVNDTSLKNPNGKTVPVVEPNKWGTFVSQIDITLDNSGNASTINTQNVKMTDSIPEDPNIVNIIQPYQNKTLDYIST”: the protein production entry is reported as “failed”.

These data come from a protein production outcome set (Wang et al. 2014).
